Data as given in paper PMC9352680, “A comprehensive thermodynamic model for RNA binding by the Saccharomyces cerevisiae Pumilio protein PUF4”.

T1: PUF4 RNA-binding domain (Saccharomyces cerevisiae, UniProt P25339 537-888)
T1 sequence: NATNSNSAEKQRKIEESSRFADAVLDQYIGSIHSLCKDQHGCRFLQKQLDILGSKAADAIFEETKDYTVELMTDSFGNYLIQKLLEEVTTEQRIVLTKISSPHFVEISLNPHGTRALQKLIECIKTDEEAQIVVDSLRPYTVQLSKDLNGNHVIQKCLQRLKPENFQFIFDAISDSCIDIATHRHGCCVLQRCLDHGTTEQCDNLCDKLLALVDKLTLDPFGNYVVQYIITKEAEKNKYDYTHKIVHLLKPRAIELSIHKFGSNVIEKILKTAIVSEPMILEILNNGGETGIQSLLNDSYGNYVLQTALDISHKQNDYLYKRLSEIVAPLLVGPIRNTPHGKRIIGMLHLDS


Molecular target: T1, PUF4 RNA-binding domain
Experiment: Mg; RNA-MaP; 20 mM Na-HEPES pH 7.4, 30 mM KOAc, 0.75 mM MgCl2, 0.1% Tween-20, 5% glycerol, 0.1 mg/mL BSA, 2 mM DTT; 25 C; 0.0125-409.6 nM protein
Details: tags: N-His6-TEV cleaved; C-SNAP kept, Cy3B-labelled; label: tethered on chip by stalled RNA polymerase

| Binder | Kd [nM] |
| --- | --- |
| UCUCUUUGCAAUAUUAUCUCUU (ssRNA) [Ib_S1_P5E.1_K5.1_C5.1_H5.1_[T3C]_A5.1_[T5A]_F5.1_T5.1] | 1370 |
| UCUCUUUAUAUUUUUAUCUCUU (ssRNA) [Ib_S1_P5E.1_K5.1_C5.1_H5.1_[G2A]_A5.1_[A7T]_F5.1_T5.1] | 742 |
| Id_ii_S4_P4E.3_K4.2_C4.2_H4.2_A4.1_F4.1_T4.2_[G10T]_[T11C] (ssRNA) RNA: UUUGACAACUGAUCGUUCUUUCUCUUAUAUAUUAUCUUCUUUCUCGAUCAGUUGUCUUU | 6.46 |
| Id_ii_S4_P4E.4_K4.3_C4.2_[C-2T]_[T-1A]_H4.3_A4.1_F4.1_T4.2_[G10T]_[T11C] (ssRNA) RNA: UUUGACAACUGAUCGUUCUUUCUUAACACUAUUAUCUUCUUUCUCGAUCAGUUGUCUUU | > 2300 |
| Id_ii_S4_P4E.4_K4.3_C4.2_[C-2T]_[T-1A]_H4.3_A4.1_F4.1_T4.2_[G10T]_[T11A] (ssRNA) RNA: UUUGACAACUGAUCGUUCUUUCUUAACACUAUUAUAUUCUUUCUCGAUCAGUUGUCUUU | 716 |
| If_S4_P4E.3_K4.2_C4.2_H4.2_A4.1_F4.1_T4.2 (ssRNA) RNA: UUUGACAACUGAUCGUUCUUUCUCUUAUAUAUUAGUUUCUUUCUCGAUCAGUUGUCUUU | 8.97 |
| Id_ii_S4_P4E.4_K4.3_C4.2_[T-1G]_H4.3_A4.1_F4.1_T4.2_[G10T] (ssRNA) RNA: UUUGACAACUGAUCGUUCUUUCUCGACACUAUUAUUUUCUUUCUCGAUCAGUUGUCUUU | > 2300 |
| Id_ii_S4_P4E.4_K4.3_C4.2_[T-1G]_H4.3_A4.1_F4.1_T4.2_[G10C]_[T11C] (ssRNA) RNA: UUUGACAACUGAUCGUUCUUUCUCGACACUAUUACCUUCUUUCUCGAUCAGUUGUCUUU | > 2300 |
| Id_ii_S4_P4E.4_K4.3_C4.2_[T-1A]_H4.3_A4.1_F4.1_T4.2_[G10C] (ssRNA) RNA: UUUGACAACUGAUCGUUCUUUCUCAACACUAUUACUUUCUUUCUCGAUCAGUUGUCUUU | > 2300 |
| Id_ii_S4_P4E.4_K4.3_C4.2_H4.3_A4.1_F4.1_T4.2_[G10C]_[T11A] (ssRNA) RNA: UUUGACAACUGAUCGUUCUUUCUCUACACUAUUACAUUCUUUCUCGAUCAGUUGUCUUU | 944 |
| Id_ii_S4_P4E.3_K4.2_C4.2_H4.2_A4.1_F4.1_T4.2_[T11C] (ssRNA) RNA: UUUGACAACUGAUCGUUCUUUCUCUUAUAUAUUAGCUUCUUUCUCGAUCAGUUGUCUUU | 5.07 |
| Id_ii_S4_P4E.4_K4.3_C4.2_[T-1C]_H4.3_A4.1_F4.1_T4.2_[G10C]_[T11C] (ssRNA) RNA: UUUGACAACUGAUCGUUCUUUCUCCACACUAUUACCUUCUUUCUCGAUCAGUUGUCUUU | 1360 |
| Id_ii_S4_P4E.4_K4.3_C4.2_[T-1C]_H4.3_A4.1_F4.1_T4.2_[G10A] (ssRNA) RNA: UUUGACAACUGAUCGUUCUUUCUCCACACUAUUAAUUUCUUUCUCGAUCAGUUGUCUUU | > 2300 |
| Id_ii_S4_P4E.3_K4.2_C4.2_H4.2_A4.1_F4.1_T4.2_[G10A]_[T11C] (ssRNA) RNA: UUUGACAACUGAUCGUUCUUUCUCUUAUAUAUUAACUUCUUUCUCGAUCAGUUGUCUUU | 15.9 |
| Id_ii_S4_P4E.4_K4.3_C4.2_[C-2G]_H4.3_A4.1_F4.1_T4.2_[G10A]_[T11A] (ssRNA) RNA: UUUGACAACUGAUCGUUCUUUCUGUACACUAUUAAAUUCUUUCUCGAUCAGUUGUCUUU | 0.535 |
| Id_ii_S4_P4E.4_K4.3_C4.2_[T-1A]_H4.3_A4.1_F4.1_T4.2 (ssRNA) RNA: UUUGACAACUGAUCGUUCUUUCUCAACACUAUUAGUUUCUUUCUCGAUCAGUUGUCUUU | > 2300 |
| Id_ii_S4_P4E.4_K4.3_C4.2_[C-2G]_H4.3_A4.1_F4.1_T4.2_[G10T]_[T11A] (ssRNA) RNA: UUUGACAACUGAUCGUUCUUUCUGUACACUAUUAUAUUCUUUCUCGAUCAGUUGUCUUU | 0.647 |
| Id_ii_S4_P4E.4_K4.3_C4.2_[C-2G]_H4.3_A4.1_F4.1_T4.2_[G10T] (ssRNA) RNA: UUUGACAACUGAUCGUUCUUUCUGUACACUAUUAUUUUCUUUCUCGAUCAGUUGUCUUU | 0.388 |
| Id_ii_S4_P4E.4_K4.3_C4.2_[T-1C]_H4.3_A4.1_F4.1_T4.2_[G10C] (ssRNA) RNA: UUUGACAACUGAUCGUUCUUUCUCCACACUAUUACUUUCUUUCUCGAUCAGUUGUCUUU | > 2300 |
| Id_ii_S4_P4E.4_K4.3_C4.2_[C-2G]_[T-1C]_H4.3_A4.1_F4.1_T4.2_[G10T]_[T11A] (ssRNA) RNA: UUUGACAACUGAUCGUUCUUUCUGCACACUAUUAUAUUCUUUCUCGAUCAGUUGUCUUU | 28.5 |
| Id_ii_S4_P4E.4_K4.3_C4.2_[C-2G]_H4.3_A4.1_F4.1_T4.2_[G10C]_[T11C] (ssRNA) RNA: UUUGACAACUGAUCGUUCUUUCUGUACACUAUUACCUUCUUUCUCGAUCAGUUGUCUUU | 1.02 |
| Id_ii_S4_P4E.3_K4.2_C4.2_H4.2_A4.1_F4.1_T4.2_[G10A] (ssRNA) RNA: UUUGACAACUGAUCGUUCUUUCUCUUAUAUAUUAAUUUCUUUCUCGAUCAGUUGUCUUU | 10.8 |
| Id_ii_S4_P4E.4_K4.3_C4.2_[C-2T]_[T-1C]_H4.3_A4.1_F4.1_T4.2_[G10T]_[T11C] (ssRNA) RNA: UUUGACAACUGAUCGUUCUUUCUUCACACUAUUAUCUUCUUUCUCGAUCAGUUGUCUUU | > 2300 |
| Id_ii_S4_P4E.4_K4.3_C4.2_[T-1G]_H4.3_A4.1_F4.1_T4.2_[G10C]_[T11A] (ssRNA) RNA: UUUGACAACUGAUCGUUCUUUCUCGACACUAUUACAUUCUUUCUCGAUCAGUUGUCUUU | > 2300 |

| Binder | Kd [nM] |
| --- | --- |
| Id_ii_S4_P4E.4_K4.3_C4.2_[T-1C]_H4.3_A4.1_F4.1_T4.2_[G10T]_[T11A] (ssRNA) RNA: UUUGACAACUGAUCGUUCUUUCUCCACACUAUUAUAUUCUUUCUCGAUCAGUUGUCUUU | 728 |
| Id_ii_S4_P4E.4_K4.3_C4.2_[C-2T]_[T-1A]_H4.3_A4.1_F4.1_T4.2_[G10A]_[T11C] (ssRNA) RNA: UUUGACAACUGAUCGUUCUUUCUUAACACUAUUAACUUCUUUCUCGAUCAGUUGUCUUU | > 2300 |
| Id_ii_S4_P4E.4_K4.3_C4.2_[C-2T]_[T-1C]_H4.3_A4.1_F4.1_T4.2_[G10A]_[T11C] (ssRNA) RNA: UUUGACAACUGAUCGUUCUUUCUUCACACUAUUAACUUCUUUCUCGAUCAGUUGUCUUU | 2110 |
| Id_ii_S4_P4E.4_K4.3_C4.2_H4.3_A4.1_F4.1_T4.2_[G10A]_[T11C] (ssRNA) RNA: UUUGACAACUGAUCGUUCUUUCUCUACACUAUUAACUUCUUUCUCGAUCAGUUGUCUUU | 1210 |
| Id_ii_S4_P4E.4_K4.3_C4.2_[C-2G]_H4.3_A4.1_F4.1_T4.2_[G10A]_[T11C] (ssRNA) RNA: UUUGACAACUGAUCGUUCUUUCUGUACACUAUUAACUUCUUUCUCGAUCAGUUGUCUUU | 1.54 |
| Id_ii_S4_P4E.4_K4.3_C4.2_[T-1A]_H4.3_A4.1_F4.1_T4.2_[T11C] (ssRNA) RNA: UUUGACAACUGAUCGUUCUUUCUCAACACUAUUAGCUUCUUUCUCGAUCAGUUGUCUUU | > 2300 |
| Id_ii_S4_P4E.4_K4.3_C4.2_[C-2A]_H4.3_A4.1_F4.1_T4.2_[G10A] (ssRNA) RNA: UUUGACAACUGAUCGUUCUUUCUAUACACUAUUAAUUUCUUUCUCGAUCAGUUGUCUUU | 28.2 |
| Id_ii_S4_P4E.4_K4.3_C4.2_[C-2A]_H4.3_A4.1_F4.1_T4.2_[G10C]_[T11C] (ssRNA) RNA: UUUGACAACUGAUCGUUCUUUCUAUACACUAUUACCUUCUUUCUCGAUCAGUUGUCUUU | 14.9 |
| Id_ii_S4_P4E.4_K4.3_C4.2_[C-2G]_[T-1C]_H4.3_A4.1_F4.1_T4.2_[G10C]_[T11G] (ssRNA) RNA: UUUGACAACUGAUCGUUCUUUCUGCACACUAUUACGUUCUUUCUCGAUCAGUUGUCUUU | 2000 |
| Id_ii_S4_P4E.4_K4.3_C4.2_[C-2T]_[T-1A]_H4.3_A4.1_F4.1_T4.2 (ssRNA) RNA: UUUGACAACUGAUCGUUCUUUCUUAACACUAUUAGUUUCUUUCUCGAUCAGUUGUCUUU | > 2300 |
| Id_ii_S4_P4E.4_K4.3_C4.2_[C-2T]_[T-1A]_H4.3_A4.1_F4.1_T4.2_[G10C]_[T11A] (ssRNA) RNA: UUUGACAACUGAUCGUUCUUUCUUAACACUAUUACAUUCUUUCUCGAUCAGUUGUCUUU | > 2300 |
| Id_ii_S4_P4E.4_K4.3_C4.2_[C-2A]_[T-1C]_H4.3_A4.1_F4.1_T4.2_[G10C] (ssRNA) RNA: UUUGACAACUGAUCGUUCUUUCUACACACUAUUACUUUCUUUCUCGAUCAGUUGUCUUU | > 2300 |
| Id_ii_S4_P5E.2_K5.1_C5.2_[C-2G]_[T-1C]_H5.1_A5.1_F5.1_T5.2_[T11A]_[A12T] (ssRNA) RNA: UUUGACAACUGAUCGUUCUUUCUGCUGUAUUAUUAAUUUCUUUCUCGAUCAGUUGUCUUU | 3.13 |
| Id_ii_S4_P5E.2_K5.1_C5.2_[C-2T]_[T-1G]_H5.1_A5.1_F5.1_T5.2_[T11A]_[A12C] (ssRNA) RNA: UUUGACAACUGAUCGUUCUUUCUUGUGUAUUAUUAACUUCUUUCUCGAUCAGUUGUCUUU | 3.09 |
| Id_ii_S4_P5E.2_K5.1_C5.2_[C-2T]_[T-1G]_H5.1_A5.1_F5.1_T5.2_[T11G]_[A12C] (ssRNA) RNA: UUUGACAACUGAUCGUUCUUUCUUGUGUAUUAUUAGCUUCUUUCUCGAUCAGUUGUCUUU | 2.47 |
| Id_ii_S4_P5E.2_K5.1_C5.2_[C-2G]_H5.1_A5.1_F5.1_T5.2_[A12T] (ssRNA) RNA: UUUGACAACUGAUCGUUCUUUCUGUUGUAUUAUUAUUUUCUUUCUCGAUCAGUUGUCUUU | 1.91 |
| Id_ii_S4_P5E.2_K5.1_C5.2_[C-2G]_H5.1_A5.1_F5.1_T5.2_[T11A] (ssRNA) RNA: UUUGACAACUGAUCGUUCUUUCUGUUGUAUUAUUAAAUUCUUUCUCGAUCAGUUGUCUUU | 6.57 |
| Id_ii_S4_P5E.2_K5.1_C5.2_[C-2G]_[T-1C]_H5.1_A5.1_F5.1_T5.2_[A12C] (ssRNA) RNA: UUUGACAACUGAUCGUUCUUUCUGCUGUAUUAUUAUCUUCUUUCUCGAUCAGUUGUCUUU | 5.29 |
| Id_ii_S4_P5E.2_K5.1_C5.2_[C-2T]_[T-1G]_H5.1_A5.1_F5.1_T5.2_[T11G]_[A12T] (ssRNA) RNA: UUUGACAACUGAUCGUUCUUUCUUGUGUAUUAUUAGUUUCUUUCUCGAUCAGUUGUCUUU | 1.51 |
| Id_ii_S4_P5E.2_K5.1_C5.2_[C-2T]_[T-1G]_H5.1_A5.1_F5.1_T5.2_[T11A]_[A12T] (ssRNA) RNA: UUUGACAACUGAUCGUUCUUUCUUGUGUAUUAUUAAUUUCUUUCUCGAUCAGUUGUCUUU | 1.56 |
| Id_ii_S4_P5E.2_K5.1_C5.2_[C-2T]_[T-1G]_H5.1_A5.1_F5.1_T5.2_[A12C] (ssRNA) RNA: UUUGACAACUGAUCGUUCUUUCUUGUGUAUUAUUAUCUUCUUUCUCGAUCAGUUGUCUUU | 1.56 |
| UCUCUUUAUAUUCUUAUCUCUU (ssRNA) [Ib_S1_P5E.1_K5.1_C5.1_H5.1_[G2A]_A5.1_[A7C]_F5.1_T5.1] | 801 |
| UCUCUUUAUAUUGUUAUCUCUU (ssRNA) [Ib_S1_P5E.1_K5.1_C5.1_H5.1_[G2A]_A5.1_[A7G]_F5.1_T5.1] | 846 |
